According to the domain aggregation screens of Martell et al. (2025):

Assay: soluble fraction after stress (log2 fold change); higher = more stays soluble; pooled small domains, quantitative proteomics
Conditions: stress: 50 degC
In short: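 The measure of aggregation propensity here is the base-two logarithm of the fold change in the soluble amount of each protein after stress. A higher value means more of that protein stays in solution. Stress was applied at 50°C to pooled libraries of small protein domains, read out by high-throughput quantitative proteomics.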

**Q.** For “HMGNKWALLVVFILNENGSTRFNQLARQIPDISTKVLSNTLQILEADGLVKRTVFPEVPIRVEYELTATGK”, which “soluble fraction (log2)” value is on record?
**A.** The value was -3.64.

**Q.** Which “soluble fraction (log2)” value does the source give for “HMGVDMAPESIVGKKGVAATELRPAGKVEIHGQVYDAVSVGMFIKRGTGVKVVRYEAAQIYVEPE” here?
**A.** The value was 0.146.

**Q.** Which “soluble fraction (log2)” value does the source give for “HMAKSMRHLIVPSRETSLWRDKLSTNGWLSKGYGIHNLDDYRGIPLNETAPKIIEGLEITELEPIS” here?
**A.** Its value is 0.0863.

**Q.** Which “soluble fraction (log2)” value does the source give for “HMDIIIEEGIDESLSTDDAILDLLGRASDAFSNAQKALLEGDLGSYQKLIEQAERLVKKATELLGENN” here?
**A.** The value was -0.0938.

**Q.** Which “soluble fraction (log2)” value does the source give for “HMPRDQQENIYLLEKGKRLYEEHLGDQRQIIGHRIMIFERILESQDHAQIRRAQSEFAEFLSHYDG” here?
**A.** The value was -0.229.

**Q.** With “HMINLTKVGNFISIIKLQQIWTIDELLKKVDINYDELLYLLTILSDIYSKNGEYFFDFDIDAENNKILFNN” as the sequence, how does the “soluble fraction (log2)” value read?
**A.** Its value is 0.42.

**Q.** For “HMDTEVVMINVVGMNIDKAKNSLNHKNILYKISYQDVSEGENNVVLKQSISSNTKIKKGQVVSLVVGKLN”, which “soluble fraction (log2)” value is on record?
**A.** The value was 0.352.

**Q.** Which “soluble fraction (log2)” value does the source give for “HMNMMIIHVNGEKYSFQEPITISELILKLELDSRKIAIEYNLEILPRSLFEITSIKNGDKIEIVHFI” here?
**A.** The value was -2.37.

**Q.** Which “soluble fraction (log2)” value does the source give for “HMENINIRNMGIRAVEAAIISLSPDQRTFTWGATNKKLVTVPYEENPYSALAAFFKTDDGIEIYDAIEKRL” here?
**A.** Its value is -0.892.

**Q.** With “HMSEYNPGIYRVTDPALNIRTGPGVEYPVVGVIKDQGSYTITEIRNKSWGRLLSGAGSTAIKHIVFT” as the sequence, how does the “soluble fraction (log2)” value read?
**A.** The value was 0.0941.

**Q.** For “HMKKILIVTNRSAGMVVYTIPEEGIRREFTPGETKKIPFEELEKLAYLSGGRTLMENFLKIVDTETTEELG”, which “soluble fraction (log2)” value is on record?
**A.** Its value is -0.543.

**Q.** Which “soluble fraction (log2)” value does the source give for “HMNVKQALLELMQRKPELTGSAIARAIGYSPAVISQYLKDGYPGDVVKLTTLIGDFIRRIDEKERS” here?
**A.** The value was -0.182.

**Q.** With “HMSTDIPFNIFSQKWNADEIDSIVVENNKIEGKTKDNKKFSTYAPDELLTSLMENHKNPNVIVEFRAP” as the sequence, how does the “soluble fraction (log2)” value read?
**A.** Its value is 0.277.

**Q.** With “HMEPSQEFSLADMVAYDLTGYPKSAALRAAVGASLGIGYGNAKQFVYRLNHYGISKDDFHRAAQEALDGL” as the sequence, how does the “soluble fraction (log2)” value read?
**A.** Its value is -0.87.

**Q.** Which “soluble fraction (log2)” value does the source give for “HMSLSQLGLTPRQTDVLALLLKGQPNKLIARELGLSVETVKDHVAAVLRALNVSSRTQAVIAVSQMLQ” here?
**A.** Its value is -0.905.

**Q.** Which “soluble fraction (log2)” value does the source give for “HMQINDSSVVQKAVNDVIDQNSKAVSDYWDGKEGAAKFLMGQVMKLTRGQANPDLANQLILTRLQQERV” here?
**A.** Its value is 0.264.

**Q.** Which “soluble fraction (log2)” value does the source give for “HMVKSSVTEVISMINALPVTVKPEDKADIISARMAYDTLTEDEKALVTNYEILTAAETRFNELIATT” here?
**A.** The value was 0.205.

**Q.** Which “soluble fraction (log2)” value does the source give for “HMNSLFPLSLKYLREQANITQAELAQKLDVTQQAVGRWERGQTSPDYETLKRLSVLFNVSVDYLLGV” here?
**A.** Its value is -0.304.

**Q.** Which “soluble fraction (log2)” value does the source give for “HMNSFGWESLIDKEGIADTDLHPSGWVRIDDRRIFVVSEGDFIDKGSGVTVLSVDGNRVVVRELI” here?
**A.** The value was -0.836.

**Q.** With “HMFDKNKPVVVEGENAEVALKKVSKYFNVPTEKLDYTLLGQKSAGLLGIGSKVYQFKVWLKREIP” as the sequence, how does the “soluble fraction (log2)” value read?
**A.** Its value is 0.396.

**Q.** With “HMEDISLYKILRAHSIDNLKLSQWIIDSLKTKFSTIGELQDAKIDDIRMYRIQDVRIEKIKNAVTEYMA” as the sequence, how does the “soluble fraction (log2)” value read?
**A.** Its value is -0.926.

**Q.** Which “soluble fraction (log2)” value does the source give for “HMQNSLKAFRVKRGLTTSALSRLTNGEFSTSRISNYETGVRALTIDAAKKLAPHLGASPAQLLNL” here?
**A.** The value was -0.357.

**Q.** Which “soluble fraction (log2)” value does the source give for “HMENTFNENLRRIRKEKKITQEQLAEFVGVSPQAVSKWEMNSFPDASLLPKIAEKLEVSIDELFGLK” here?
**A.** Its value is 0.000882.

**Q.** With “HMNQYALTDREKNVLGLLVDGLSYKMIADKENISFHTVNAHVRKIYEKLHVHSLAEAVSKALKENL” as the sequence, how does the “soluble fraction (log2)” value read?
**A.** The value was -1.29.

**Q.** With “HMVEKNALSEEIEGYVNKYGKDRSSLMPVLQAIQRKHSYINDFAQQEVARLLDIHPVEVFSVISFYSFLH” as the sequence, how does the “soluble fraction (log2)” value read?
**A.** Its value is -1.79.

**Q.** With “HMKRDRLYGITIYLLNHGRTSAKTLAEYFEVSVRTIQRDMDALSMAKIPIIAYPGSDGGYEIQEGYRL” as the sequence, how does the “soluble fraction (log2)” value read?
**A.** Its value is -3.1.

**Q.** Which “soluble fraction (log2)” value does the source give for “HMKGHQASTTWISERVKDIIKEDPTLGARKLQKRLEIHYNIELSYFKVWSGKNLQWMIFMVL” here?
**A.** The value was 0.022.

**Q.** For “HMSQLDITEARIVVSGGLGMQGPENFKLLEELAKVLGGAVGASRPVVDNGWREYSNQVGQTGKIVAPELYV”, which “soluble fraction (log2)” value is on record?
**A.** The value was -0.0903.

**Q.** With “HMPYSAAVTFLDDAKQPMVNYNYRLIAENGIEVSGITDEFGKTQPIQTDQREKVDLYIADLPN” as the sequence, how does the “soluble fraction (log2)” value read?
**A.** Its value is 0.495.

**Q.** For “HMLTRRQSEVLDFIRQFAESESMPPTLHEIAKGMGFSSDNAARDHVRALARKGAIDLVGGTSRGIRLR”, which “soluble fraction (log2)” value is on record?
**A.** The value was -0.354.

**Q.** With “HMVVMKGKVKWFNKNKGYGFIITDDNKEYFVHWKSIVTNSPRELKVLEQDELVTFDLMETDKGIQAINII” as the sequence, how does the “soluble fraction (log2)” value read?
**A.** The value was -2.14.

**Q.** With “HMARTLSVTVSENYANMRLDSFLFESGLYPSRSKAVKQIESGKVFVNGNEPTKKTIVVANDFIVYEEYAEE” as the sequence, how does the “soluble fraction (log2)” value read?
**A.** Its value is -1.06.

**Q.** With “HMNSHQNELDNALTEAHTASRRLLEGTDEYLDLSSQPAYIRRLQHLLAQKYNLGSLSSGVEPNRHIRLLQ” as the sequence, how does the “soluble fraction (log2)” value read?
**A.** The value was -0.143.

**Q.** Which “soluble fraction (log2)” value does the source give for “HMDKESQTMFRLLTGVSGVGPKVGLAILSVLSPDRVVLAISAGDHKAFTAASGVGPKLGQRIVLELKDKVG” here?
**A.** The value was -3.12.

**Q.** With “HMGKSDEIFIQKSALYEELGQPDRALEMIYSALKSDSLNIDVLHRLVTLLINQNKNEDAILYNQKIID” as the sequence, how does the “soluble fraction (log2)” value read?
**A.** Its value is -0.193.

**Q.** For “HMSQNTHTIPSREDILGIFRSVNAPLDPQSLGKTLQVHADSMDVLVRRLKAMERDGQLKSDASGVFSLAD”, which “soluble fraction (log2)” value is on record?
**A.** The value was 0.119.

**Q.** Which “soluble fraction (log2)” value does the source give for “HMGAGLLEPEPLKIEIQETQERLQKLQKALERDTETADSKERIKRAIEAHKARISQLQGLIE” here?
**A.** The value was 0.0635.

**Q.** For “HMLGSQQAYTDALRLTGLPVDIEVIESDRLPFLIPMRYSLDQHLIEVNVRYPDTRAIRVQQMVEELFHA”, which “soluble fraction (log2)” value is on record?
**A.** The value was -0.624.

**Q.** For “HMRTFFEIEQLKAYVGEEIQVKFEADSHKQTVLGKLISISEDFIEIENSKKGNLKISLDNYLTSKLIY”, which “soluble fraction (log2)” value is on record?
**A.** Its value is -1.6.

**Q.** With “HMVIQRQIPPLVTRMLDGLEQFIQLDMPFDLDTRLGNIEAVRANMDRSDVTSAEAYRQVLELYSIELQ” as the sequence, how does the “soluble fraction (log2)” value read?
**A.** Its value is -0.2.

**Q.** With “HMTDLDDFAARLKTLTDGRASTPRLRDGVMMLSLDVGGLGPDQRDGLIAAIREGGLTVPGVSDVRIVMT” as the sequence, how does the “soluble fraction (log2)” value read?
**A.** Its value is 0.0757.

**Q.** With “HMEHDYGLSGREREVLELMVQGLVKKEIADRLALSYHTVDNHLRSIYAKLQVHTRGGAVAKALSEHLVPP” as the sequence, how does the “soluble fraction (log2)” value read?
**A.** The value was 0.217.

**Q.** With “HMTQEQKQQISDQLRAYVEQKGSGNKAAASMNGVSSATISKVLAGKWETISEDMWRSIAAQTGH” as the sequence, how does the “soluble fraction (log2)” value read?
**A.** The value was 0.106.

**Q.** For “HMKISDTITEKILTDNNFSMELAKKIGIQQGSLLSSIRRNRDSRILRLWEAVMFYKEQGYTEEEIFTDY”, which “soluble fraction (log2)” value is on record?
**A.** Its value is -1.27.

**Q.** Which “soluble fraction (log2)” value does the source give for “HMAVTKVKVITESSNLNIRKGPGTDQPIVGKAAHHEIITLVNKSNDQWWLVRTNDGEEGYSYSRYLEPVT” here?
**A.** The value was -0.39.

**Q.** Which “soluble fraction (log2)” value does the source give for “HMKLSIEDLAAELIRKIEAGDIGNEQGKMPSERELLAIYPVSRYTLRQALNKLSKMGWIYQMQGRGSYIRF” here?
**A.** Its value is -1.35.

**Q.** With “HMAMESDELETLVDQLIVDHPDEWSRFVGGDDGDRKKMQGFFTGQIMKATKGQADGRAVAQLLGQKSA” as the sequence, how does the “soluble fraction (log2)” value read?
**A.** The value was 0.0334.

**Q.** With “HMEFDVELTSFEEAKKLKVIKEVKDVTGLSLGEAKDLVMGAPKAIKTGVSKEEAEAIKTQIEAAGAVVTI” as the sequence, how does the “soluble fraction (log2)” value read?
**A.** The value was 0.122.

**Q.** With “HMEEMADILKTRIDTLDLSTRTLNALTGANIRTVGGIARKKKEDLLELAGMGEKGIQEIKKVLGGFGITL” as the sequence, how does the “soluble fraction (log2)” value read?
**A.** Its value is -0.0181.

**Q.** For “HMNKVQTFIIEKHIKEVFEHTNRTYYRSGQYYFQTRDEFSMALKRFLKDREPNKKNWIDSIINRA”, which “soluble fraction (log2)” value is on record?
**A.** The value was -0.298.
